No end group written: not given here.
Columns and labels:
Assay in all cases: stopped-flow fluorescence
[1] = molecular target: N-lobe mutant of calmodulin (CaM12) (rat, UniProt P0DP29 1-149, D20 to alanine | D56 to alanine)
[2] = molecular target: wild-type calmodulin (His-CaM) (rat, UniProt P0DP29 1-149)
[3] = molecular target: C-lobe mutant of calmodulin (CaM34) (rat, UniProt P0DP29 1-149, D93 to alanine | D129 to alanine)

Row | binding result [1] | binding result [2] | binding result [3] | Binder
1 | binds | binds | – | GSRPQRLLWQTAVRHITEQRFIHGH-NH2 [AC8-Nt peptide]
2 | – | binds | binds | YSLAAVVLGLVQSLNRQRQKQLLNE-NH2 [AC8-C2b peptide]
3 | binds | binds | – | IKPAKRMKFKTVCYLLVQLMHCRKMFKA (C-terminal amide) [AC1-C1b peptide]

From paper PMC3466776 (Biochemistry, 2012)
